Publication PMC2804849

Assays:
[1] = target: SCF (Homo sapiens) (UniProt Q13616); settings: cited from earlier work
[2] = target: SCF holoenzyme (FRET experiment of Figure S2c) (human) (UniProt P62877); test: FRET or BRET
[3] = target: Rbx1-Cul1-CFP complex (RC^CFP) (human) (UniProt P62877); test: FRET or BRET
[4] = target: Nedd8-conjugated RC^CFP (human) (UniProt P62877); test: FRET or BRET

Sequence of Cdc34 (P49427 whole entry): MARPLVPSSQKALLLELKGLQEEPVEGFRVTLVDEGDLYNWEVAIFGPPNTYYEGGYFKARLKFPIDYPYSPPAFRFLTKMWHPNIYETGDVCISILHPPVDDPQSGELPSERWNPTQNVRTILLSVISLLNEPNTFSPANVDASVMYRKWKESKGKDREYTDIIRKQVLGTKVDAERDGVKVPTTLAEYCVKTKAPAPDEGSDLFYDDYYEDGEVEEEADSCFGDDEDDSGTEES

For Cdc34 (from UniProt P49427), the Kd [1] is given as 0.02 µM.
Substance “human Cdc34, WT, labelled with Lumio Green at the C-terminus (from UniProt Q712K3 1-238) (enzyme)” has a fold change of koff against RC^CFP heterodimer [2] of less than 2 fold, a Kd [3] of 0.074 µM and a koff [3] of 35 s⁻¹. It also gave a kon [3] of 4.7e+08 M⁻¹ s⁻¹.
Substance “human Cdc34 charged with ubiquitin (Cdc34~Ub) (from UniProt Q712K3 1-238; P0CG48 1-76) (complex)” has a fold change of the kinetic parameters against uncharged Cdc34 [4] of 2 fold.
